Molecular target: Recombinant Human TNF-α/TNFSF1A (human, UniProt P01375 77-233)
Assay: cell-based or functional assay

Sequence of Recombinant Human TNF-α/TNFSF1A (P01375 77-233 limits assumed): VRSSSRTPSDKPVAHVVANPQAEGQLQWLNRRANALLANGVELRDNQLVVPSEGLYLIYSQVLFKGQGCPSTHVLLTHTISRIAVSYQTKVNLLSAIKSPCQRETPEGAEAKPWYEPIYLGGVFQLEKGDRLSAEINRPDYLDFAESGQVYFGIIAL

B1: DVD3239 (bispecific antibody, IgG1)
VH: EVQLVESGGGLVQPGGSLRLSCAASGFSFSKYWLGWVRQAPGKGLEWVSDIYPGYDYTHYNEKFKDRFTISADTSKNTAYLQMNSLRAEDTAVYYCARSDGSSTYWGQGTLVTVSSASTKGPEVQLVQSGAEVKKPGASVKVSCKASGYTFNNYGIIWVRQAPGQGLEWMGWINTYTGKPTYAQKFQGRVTMTTDTSTSTAYMELSSLRSEDTAVYYCARKLFNTVAVTDNAMDYWGQGTTVTVSS
VL: DIQMTQSPSSLSASVGDRVTITCTSSQNIVHSNGNTYLEWYQQKPGKAPKLLIYKVSNRFSGVPSRFSGSGSGTDFTLTISSLQPEDFATYYCFQVSHVPYTFGQGTKVEIKRTVAAPDIQMTQSPSSLSASVGDRVTITCRASQDIENYLNWYQQKPGKAPKLLIYYTSRLQSGVPSRFSGSGSGTDFTLTISSLQPEDFATYFCQQGNTQPPTFGQGTKLEIKR
- C-Terminal VD huTNFα Neutralization Assay IC50: 1.62 nM

B2: DVD3241 (bispecific antibody, IgG1)
VH: B1 VH
VL: DIQMTQSPSSLSASVGDRVTITCTSSQNIVHSNGNTYLEWYQQKPGKAPKLLIYKVSNRFSGVPSRFSGSGSGTDFTLTISSLQPEDFATYYCFQVSHVPYTFGQGTKVEIKRTVAAPSVFIFPPDIQMTQSPSSLSASVGDRVTITCRASQDIENYLNWYQQKPGKAPKLLIYYTSRLQSGVPSRFSGSGSGTDFTLTISSLQPEDFATYFCQQGNTQPPTFGQGTKLEIKR
- C-Terminal VD huTNFα Neutralization Assay IC50: 0.112 nM

B3: DVD3242 (bispecific antibody, IgG1)
VH: EVQLVESGGGLVQPGGSLRLSCAASGFSFSKYWLGWVRQAPGKGLEWVSDIYPGYDYTHYNEKFKDRFTISADTSKNTAYLQMNSLRAEDTAVYYCARSDGSSTYWGQGTLVTVSSASTKGPSVFPLAPEVQLVQSGAEVKKPGASVKVSCKASGYTFNNYGIIWVRQAPGQGLEWMGWINTYTGKPTYAQKFQGRVTMTTDTSTSTAYMELSSLRSEDTAVYYCARKLFNTVAVTDNAMDYWGQGTTVTVSS
VL: B1 VL
- C-Terminal VD huTNFα Neutralization Assay IC50: 0.13 nM

B4: DVD3263 (bispecific antibody, IgG1)
VH: EVQLVESGGGLVQPGGSLRLSCAASGFTFSNYGVTWVRQAPGKGLEWVSMIWADGSTHYASSVKGRFTISRDNSKNTLYLQMNSLRAEDTAVYYCAREWQHGPVAYWGQGTLVTVSSGGGGSGGGGSEVQLQQSGPELVTPGASVKISCKASGYTFTKYWLGWVKQSHGKSLEWIGDIYPGYDYTHYNEKFKDTATLTVDKSSSIAYMEIRGLTSEDSAVYYCARSDGSSTYWGQGTLVTVSA
VL: DIQMTQSPSSLSASVGDRVTITCRASQLVSSAVAWYQQKPGKAPKLLIYWASARHTGVPSRFSGSGSGTDFTLTISSLQPEDFATYYCQQHYKTPFTFGQGTKLEIKRGGSGGGGSGDVQMIQSPSSLSASLGDIVTMTCTSSQNIVHSNGNTYLEWFQQKPGKAPKLLIYKVSNRFSGVPSRFSGSRYGTDFTLTISSLEDEDLATYFCFQVSHVPYTFGGGTKLEIKR
- N-Terminal VD huTNFα Neutralization Assay IC50: 0.008 nM

B5: DVD3264 (bispecific antibody, IgG1)
VH: EVQLVESGGGLVQPGGSLRLSCAASGFTFSNYGVTWVRQAPGKGLEWVSMIWADGSTHYASSVKGRFTISRDNSKNTLYLQMNSLRAEDTAVYYCAREWQHGPVAYWGQGTLVTVSSASTKGPEVQLQQSGPELVTPGASVKISCKASGYTFTKYWLGWVKQSHGKSLEWIGDIYPGYDYTHYNEKFKDTATLTVDKSSSIAYMEIRGLTSEDSAVYYCARSDGSSTYWGQGTLVTVSA
VL: DIQMTQSPSSLSASVGDRVTITCRASQLVSSAVAWYQQKPGKAPKLLIYWASARHTGVPSRFSGSGSGTDFTLTISSLQPEDFATYYCQQHYKTPFTFGQGTKLEIKRTVAAPDVQMIQSPSSLSASLGDIVTMTCTSSQNIVHSNGNTYLEWFQQKPGKAPKLLIYKVSNRFSGVPSRFSGSRYGTDFTLTISSLEDEDLATYFCFQVSHVPYTFGGGTKLEIKR
- N-Terminal VD huTNFα Neutralization Assay IC50: 0.006 nM

B6: DVD3267 (bispecific antibody, IgG1)
VH: EVQLVESGGGLVQPGGSLRLSCAASGFSFSKYWLGWVRQAPGKGLEWVSDIYPGYDYTHYNEKFKDRFTISADTSKNTAYLQMNSLRAEDTAVYYCARSDGSSTYWGQGTLVTVSSASTKGPSVFPLAPEVQLQQSGPELVTPGASVKISCKASGYTFTKYWLGWVKQSHGKSLEWIGDIYPGYDYTHYNEKFKDTATLTVDKSSSIAYMEIRGLTSEDSAVYYCARSDGSSTYWGQGTLVTVSA
VL: DIQMTQSPSSLSASVGDRVTITCTSSQNIVHSNGNTYLEWYQQKPGKAPKLLIYKVSNRFSGVPSRFSGSGSGTDFTLTISSLQPEDFATYYCFQVSHVPYTFGQGTKVEIKRTVAAPDVQMIQSPSSLSASLGDIVTMTCTSSQNIVHSNGNTYLEWFQQKPGKAPKLLIYKVSNRFSGVPSRFSGSRYGTDFTLTISSLEDEDLATYFCFQVSHVPYTFGGGTKLEIKR
- N-Terminal VD huTNFα Neutralization Assay IC50: 0.002 nM

B7: DVD3283 (bispecific antibody, IgG1)
VH: EVQLVQSGAEVKKPGASVKVSCKASGYTFANYGIIWVRQAPGQGLEWMGWINTYTGKPTYAQKFQGRVTMTTDTSTSTAYMELSSLRSEDTAVYYCARKLFTTMDVTDNAMDYWGQGTTVTVSSGGGGSGGGGSEVQLQQSGPELVTPGASVKISCKASGYTFTKYWLGWVKQSHGKSLEWIGDIYPGYDYTHYNEKFKDTATLTVDKSSSIAYMEIRGLTSEDSAVYYCARSDGSSTYWGQGTLVTVSA
VL: DIQMTQSPSSLSASVGDRVTITCRASQDISQYLNWYQQKPGKAPKLLIYYTSRLQSGVPSRFSGSGSGTDFTLTISSLQPEDFATYFCQQGNTWPPTFGQGTKLEIKRGGSGGGGSGDVQMIQSPSSLSASLGDIVTMTCTSSQNIVHSNGNTYLEWFQQKPGKAPKLLIYKVSNRFSGVPSRFSGSRYGTDFTLTISSLEDEDLATYFCFQVSHVPYTFGGGTKLEIKR
- N-Terminal VD huTNFα Neutralization Assay IC50: 0.002 nM

B8: DVD3284 (bispecific antibody, IgG1)
VH: EVQLVQSGAEVKKPGASVKVSCKASGYTFANYGIIWVRQAPGQGLEWMGWINTYTGKPTYAQKFQGRVTMTTDTSTSTAYMELSSLRSEDTAVYYCARKLFTTMDVTDNAMDYWGQGTTVTVSSASTKGPEVQLQQSGPELVTPGASVKISCKASGYTFTKYWLGWVKQSHGKSLEWIGDIYPGYDYTHYNEKFKDTATLTVDKSSSIAYMEIRGLTSEDSAVYYCARSDGSSTYWGQGTLVTVSA
VL: DIQMTQSPSSLSASVGDRVTITCRASQDISQYLNWYQQKPGKAPKLLIYYTSRLQSGVPSRFSGSGSGTDFTLTISSLQPEDFATYFCQQGNTWPPTFGQGTKLEIKRTVAAPDVQMIQSPSSLSASLGDIVTMTCTSSQNIVHSNGNTYLEWFQQKPGKAPKLLIYKVSNRFSGVPSRFSGSRYGTDFTLTISSLEDEDLATYFCFQVSHVPYTFGGGTKLEIKR
- N-Terminal VD huTNFα Neutralization Assay IC50: 0.012 nM

B9: DVD3286 (bispecific antibody, IgG1)
VH: B8 VH
VL: DIQMTQSPSSLSASVGDRVTITCRASQDISQYLNWYQQKPGKAPKLLIYYTSRLQSGVPSRFSGSGSGTDFTLTISSLQPEDFATYFCQQGNTWPPTFGQGTKLEIKRTVAAPSVFIFPPDVQMIQSPSSLSASLGDIVTMTCTSSQNIVHSNGNTYLEWFQQKPGKAPKLLIYKVSNRFSGVPSRFSGSRYGTDFTLTISSLEDEDLATYFCFQVSHVPYTFGGGTKLEIKR
- N-Terminal VD huTNFα Neutralization Assay IC50: 0.002 nM

B10: DVD3287 (bispecific antibody)
VH: EVQLVQSGAEVKKPGASVKVSCKASGYTFANYGIIWVRQAPGQGLEWMGWINTYTGKPTYAQKFQGRVTMTTDTSTSTAYMELSSLRSEDTAVYYCARKLFTTMDVTDNAMDYWGQGTTVTVSSASTKGPSVFPLAPEVQLQQSGPELVTPGASVKISCKASGYTFTKYWLGWVKQSHGKSLEWIGDIYPGYDYTHYNEKFKDTATLTVDKSSSIAYMEIRGLTSEDSAVYYCARSDGSSTYWGQGTLVTVSA
VL: B8 VL
- N-Terminal VD huTNFα Neutralization Assay IC50: 0.018 nM

B11: DVD2766 (bispecific antibody, IgG1)
VH: EVQLVESGGGLVQPGGSLRLSCAASGFTFSNYGVEWVRQAPGKGLEWVSGIWADGSTHYADTVKSRFTISRDNSKNTLYLQMNSLRAEDTAVYYCAREWQHGPVAYWGQGTLVTVSSASTKGPEVQLVESGGGLVQPGGSLRLSCAASGFSLTNNNVNWVRQAPGKGLEWVGGVWAGGATDYNSALKSRFTISRDNSKNTAYLQMNSLRAEDTAVYYCARDGGYSSSTLYAMDAWGQGTLVTVSS
VL: DIQMTQSPSSLSASVGDRVTITCKASQLVSSAVAWYQQKPGKAPKLLIYWASTLHTGVPSRFSGSGSGTDFTLTISSLQPEDFATYYCQQHYRTPFTFGQGTKLEIKRTVAAPSVFIFPPDIQMTQSPSSLSASVGDRVTITCRASEDIYNALAWYQQKPGKAPKLLIYNTDTLHTGVPSRFSGSGSGTDYTLTISSLQPEDFATYFCQHYFHYPRTFGQGTKVEIKR
- N-Terminal VD huTNFα Neutralization Assay IC50: 0.01 nM

B12: DVD3043 (bispecific antibody, IgG1)
VH: EVQLVESGGGLVQPGGSLRLSCAASGFSLTNNNVNWVRQAPGKGLEWVGGVWAGGATDYNSALKSRFTISRDNSKNTAYLQMNSLRAEDTAVYYCARDGGYSSSTLYAMDAWGQGTLVTVSSGGGGSGGGGSEVQLVQSGAEVKKPGASVKVSCKASGYTFNNYGIIWVRQAPGQGLEWMGWINTYTGKPTYAQKFQGRVTMTTDTSTSTAYMELSSLRSEDTAVYYCARKLFNTVAVTDNAMDYWGQGTTVTVSS
VL: DIQMTQSPSSLSASVGDRVTITCRASEDIYNALAWYQQKPGKAPKLLIYNTDTLHTGVPSRFSGSGSGTDYTLTISSLQPEDFATYFCQHYFHYPRTFGQGTKVEIKRGGSGGGGSGDIQMTQSPSSLSASVGDRVTITCRASQDIENYLNWYQQKPGKAPKLLIYYTSRLQSGVPSRFSGSGSGTDFTLTISSLQPEDFATYFCQQGNTQPPTFGQGTKLEIKR
- C-Terminal VD huTNFα Neutralization Assay IC50: 0.128 nM

From patent US20140271457A1 (AbbVie / Abbott, published 2014)
